{
  "source": "paper PMC4125376",
  "key": {"[1]": {"system": "NC(=O)c1ccc[n+]([C@@H]2O[C@H](COP(=O)([O-])OP(=O)(O)OC[C@H]3O[C@@H](n4cnc5c(N)ncnc54)[C@H](O)[C@@H]3O)[C@@H](O)[C@H]2O)c1", "assay": "purified protein", "conditions": "varied: cofactor"}, "C[C@H](O)C(=O)O": {"system": "C[C@H](O)C(=O)O", "assay": "purified protein", "assay_type": "biochemical, Babesia microti", "conditions": "NAD+"}},
  "data": [
    {"substance": "Babesia microti lactate dehydrogenase (BmLDH) (Babesia microti strain RI)", "values": [
      {"measurement": "Km", "setting": "[1]", "result": "8.76 ± 0.57", "unit": "mM"},
      {"measurement": "Km", "setting": "C[C@H](O)C(=O)O", "result": "99.96 ± 22.33", "unit": "mM"}
    ]}
  ]
}
